Reference: PMC9307980, “High-Affinity Single-Domain Antibodies for Analyzing Human Apo- and Holo-Transferrin” (Acta Naturae, 2022)

B1: aTf1 nanobody (anti-human transferrin single-domain antibody) (VHH)
VHH: QVQLVESGGGLVQPGGSLTLSCAASGFTFSTYAMKWVRQAPGMGLEYVASINNGGTSTFYSASVKGRFTISRDNAKNTLYLQLNSLKTEDTAMYYCARINEYSTRGQGTQVTVSS
notes: variable domain of aTf1; HA-tag and His-tag follow it; source: generated in the bacterial periplasm, isolated and purified
B2: aTf2 nanobody (anti-human transferrin single-domain antibody) (VHH)
VHH: QVQLVESGGGSVQAGGSLRLSCAVSGYMYSTNCMGWFRQAPGKEREGVAAIYTGGGSTYYPDSVKGRFTISQDNAKNTVYLQMNSLKPEDTAMYYCAAMRHCPYGGNWDHPVNYLGQGTQVTVSS
notes: variable domain of aTf2; long CDR3, cysteines in CDR1 and CDR3; HA-tag and His-tag follow it; source: generated in the bacterial periplasm, isolated and purified

Experiments:
apo-Transferrin human = biological target: T1, apo-Transferrin human (Homo sapiens, UniProt P02787); assay: ITC; in solution, PBS pH 7.4, MicroCal PEAQ-ITC; fitting model: sequential binding sites, number of sites 2; conditions: both partners purified
T1 construct: human transferrin (serotransferrin), iron-free form, commercial preparation; Iron-free form of transferrin; same polypeptide as holo-Tf; also called apo-Tf; source: bought: Sigma-Aldrich

holo-Transferrin human = biological target: T2, holo-Transferrin human (Homo sapiens, UniProt P02787); assay: as above; conditions: both partners purified
T2 construct: human transferrin (serotransferrin), iron-saturated form, commercial preparation; same polypeptide as apo-Tf; also called holo-Tf; source: bought: Sigma-Aldrich
T2 sequence (P02787 20-698): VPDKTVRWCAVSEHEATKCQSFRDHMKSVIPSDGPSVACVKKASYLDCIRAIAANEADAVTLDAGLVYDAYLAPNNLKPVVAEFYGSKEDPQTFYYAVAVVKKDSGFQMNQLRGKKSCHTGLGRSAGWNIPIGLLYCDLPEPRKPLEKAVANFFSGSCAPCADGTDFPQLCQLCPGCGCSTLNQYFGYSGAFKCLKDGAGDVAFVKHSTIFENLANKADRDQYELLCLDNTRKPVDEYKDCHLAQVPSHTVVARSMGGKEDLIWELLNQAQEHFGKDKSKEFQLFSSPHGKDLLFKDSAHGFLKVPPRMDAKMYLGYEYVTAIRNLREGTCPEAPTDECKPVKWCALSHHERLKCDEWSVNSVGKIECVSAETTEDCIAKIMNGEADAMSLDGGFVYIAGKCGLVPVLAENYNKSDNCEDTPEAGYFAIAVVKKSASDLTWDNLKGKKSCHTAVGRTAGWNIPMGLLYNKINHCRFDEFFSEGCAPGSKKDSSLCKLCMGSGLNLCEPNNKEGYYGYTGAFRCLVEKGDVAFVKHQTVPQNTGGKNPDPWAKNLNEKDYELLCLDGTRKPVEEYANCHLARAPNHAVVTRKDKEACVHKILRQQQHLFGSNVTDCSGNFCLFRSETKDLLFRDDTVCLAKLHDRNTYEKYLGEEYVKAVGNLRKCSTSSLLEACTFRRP

T1 sequence (P02787 20-698): as above

Row | Binder | KD1 (sequential binding sites, site 1) (apo-Transferrin human) | KD1 (sequential binding sites, site 1) (holo-Transferrin human) | KD2 (sequential binding sites, site 2) (holo-Transferrin human) | KD2 (sequential binding sites, site 2) (apo-Transferrin human)
1 | B1 | ~99.4 nM | ~0.44 nM | ~1.44 nM | 
2 | B2 | ~0.82 nM | ~0.94 nM | ~0.75 nM | ~14.5 nM
